# Reference: patent US20190321401A1 (JUNO THERAPEUTICS, published 2019)
# T1: HPV 16 E7 peptide on HLA-A*02:01 (human)
# T1 peptide: YMLDLQPET
# T2: HPV 16 E6 peptide on HLA-A*02:01 (human)
# T2 peptide: TIHDIILECV
# B1: TCR 56 (mouse constant regions) (TCR, V domains shown)
# V domain 1: GQNIDQPTEMTATEGAIVQINCTYQTSGFNGLFWYQQHAGEAPTFLSYNVLDGLEEKGRFSSFLSRSKGYSYLLLKELQMKDSASYLCAVRDWGYGGATNKLIFGTGTLLAVQP
# V domain 2: NAGVMQNPRHLVRRRGQEARLRCSPMKGHSHVYWYRQLPEEGLKFMVYLQKENIIDESGMPKERFSAEFPKEGPSILRIQQVVRGDSAAYFCASSPDESRDSNQPQHFGDGTRLSILE
# notes: Human variable regions on mouse constant regions with added cysteines (Calpha Thr48Cys, Cbeta Ser57Cys); Entries are the full chains without signal peptide
# B2: TCR 58 (mouse constant regions) (TCR, V domains shown)
# V domain 1: RKEVEQDPGPFNVPEGATVAFNCTYSNSASQSFFWYRQDCRKEPKLLMSVYSSGNEDGRFTAQLNRASQYISLLIRDSKLSDSATYLCVVNRDNYGQNFVFGPGTRLSVLP
# V domain 2: EPEVTQTPSHQVTQMGQEVILRCVPISNHLYFYWYRQILGQKVEFLVSFYNNEISEKSEIFDDQFSVERPDGSNFTLKIRSTKLEDSAMYFCASTPRSSYEQYFGPGTRLTVTE
# B3: TCR 59 (mouse constant regions) (TCR, V domains shown)
# V domain 1: GQQVMQIPQYQHVQEGEDFTTYCNSSTTLSNIQWYKQRPGGHPVFLIQLVKSGEVKKQKRLTFQFGEAKKNSSLHITATQTTDVGTYFCAPKREYGNKLVFGAGTILRVKS
# V domain 2: EPEVTQTPSHQVTQMGQEVILRCVPISNHLYFYWYRQILGQKVEFLVSFYNNEISEKSEIFDDQFSVERPDGSNFTLKIRSTKLEDSAMYFCAYSGRASYEQYFGPGTRLTVTE
# B4: TCR 60 (mouse constant regions) (TCR, V domains shown)
# V domain 1: QKEVEQNSGPLSVPEGAIASLNCTYSDRGSQSFFWYRQYSGKSPELIMFIYSNGDKEDGRFTAQLNKASQYVSLLIRDSQPSDSATYLCAVNMLGSGGSNYKLTFGKGTLLTVNP
# V domain 2: EPEVTQTPSHQVTQMGQEVILRCVPISNHLYFYWYRQILGQKVEFLVSFYNNEISEKSEIFDDQFSVERPDGSNFTLKIRSTKLEDSAMYFCAISRTVSYEQYFGPGTRLTVTE
# B5: TCR 61 (mouse constant regions) (TCR, V domains shown)
# V domain 1: QKEVEQNSGPLSVPEGAIASLNCTYSDRGSQSFFWYRQYSGKSPELIMFIYSNGDKEDGRFTAQLNKASQYVSLLIRDSQPSDSATYLCAVNIENNNARLMFGDGTQLVVKP
# V domain 2: EPEVTQTPSHQVTQMGQEVILRCVPISNHLYFYWYRQILGQKVEFLVSFYNNEISEKSEIFDDQFSVERPDGSNFTLKIRSTKLEDSAMYFCASTKRFSYEQYFGPGTRLTVTE
# B6: TCR 62 (mouse constant regions) (TCR, V domains shown)
# V domain 1: AQTVTQSQPEMSVQEAETVTLSCTYDTSENNYYLFWYKQPPSRQMILVIRQEAYKQQNATENRFSVNFQKAAKSFSLKISDSQLGDTAMYFCALYTYKYIFGTGTRLKVLA
# V domain 2: EAGVAQSPRYKIIEKRQSVAFWCNPISGHATLYWYQQILGQGPKLLIQFQNNGVVDDSQLPKDRFSAERLKGVDSTLKIQPAKLEDSAVYLCASSLDTRGSSYNEQFFGPGTRLTVLE
# B7: TCR 63 (mouse constant regions) (TCR, V domains shown)
# V domain 1: SQELEQSPQSLIVQEGKNLTINCTSSKTLYGLYWYKQKYGEGLIFLMMLQKGGEEKSHEKITAKLDEKKQQSSLHITASQPSHAGIYLCGADIDDYKLSFGAGTTVTVRA
# V domain 2: GAGVSQSPRYKVAKRGQDVALRCDPISGHVSLFWYQQALGQGPEFLTYFQNEAQLDKSGLPSDRFFAERPEGSVSTLKIQRTQQEDSAVYLCASRPRQGYNDNEQFFGPGTRLTVLE
# B8: TCR 64 (mouse constant regions) (TCR, V domains shown)
# V domain 1: AQKVTQAQTEISVVEKEDVTLDCVYETRDTTYYLFWYKQPPSGELVFLIRRNSFDEQNEISGRYSWNFQKSTSSFNFTITASQVVDSAVYFCALSGVDNYGQNFVFGPGTRLSVLP
# V domain 2: DTAVSQTPKYLVTQMGNDKSIKCEQNLGHDTMYWYKQDSKKFLKIMFSYNNKELIINETVPNRFSPKSPDKAHLNLHINSLELGDSAVYFCASSQGEAGANVLTFGAGSRLTVLE
# B9: TCR 65 (mouse constant regions) (TCR, V domains shown)
# V domain 1: EDQVTQSPEALRLQEGESSSLNCSYTVSGLRGLFWYRQDPGKGPEFLFTLYSAGEEKEKERLKATLTKKESFLHITAPKPEDSATYLCAVQAERGSTLGRLYFGRGTQLTVWP
# V domain 2: DVKVTQSSRYLVKRTGEKVFLECVQDMDHENMFWYRQDPGLGLRLIYFSYDVKMKEKGDIPEGYSVSREKKERFSLILESASTNQTSMYLCASSLWGRRNTGELFFGEGSRLTVLE
# B10: TCR 57 (mouse constant regions) (TCR, V domains shown)
# V domain 1: TQLLEQSPQFLSIQEGENLTVYCNSSSVFSSLQWYRQEPGEGPVLLVTVVTGGEVKKLKRLTFQFGDARKDSSLHITAAQPGDTGLYLCAGARNFNKFYFGSGTKLNVKP
# V domain 2: GAVVSQHPSWVICKSGTSVKIECRSLDFQATTMFWYRQFPKQSLMLMATSNEGSKATYEQGVEKDKFLINHASLTLSTLTVTSAHPEDSSFYICSARSWRGGLEQFFGPGTRLTVLE
# B11: TCR 56 (TCR, V domains shown)
# Valpha: GQNIDQPTEMTATEGAIVQINCTYQTSGFNGLFWYQQHAGEAPTFLSYNVLDGLEEKGRFSSFLSRSKGYSYLLLKELQMKDSASYLCAVRDWGYGGATNKLIFGTGTLLAVQP
# Vbeta: NAGVMQNPRHLVRRRGQEARLRCSPMKGHSHVYWYRQLPEEGLKFMVYLQKENIIDESGMPKERFSAEFPKEGPSILRIQQVVRGDSAAYFCASSPDESRDSNQPQHFGDGTRLSIL
# B12: TCR 58 (TCR, V domains shown)
# Valpha: RKEVEQDPGPFNVPEGATVAFNCTYSNSASQSFFWYRQDCRKEPKLLMSVYSSGNEDGRFTAQLNRASQYISLLIRDSKLSDSATYLCVVNRDNYGQNFVFGPGTRLSVLP
# Vbeta: EPEVTQTPSHQVTQMGQEVILRCVPISNHLYFYWYRQILGQKVEFLVSFYNNEISEKSEIFDDQFSVERPDGSNFTLKIRSTKLEDSAMYFCASTPRSSYEQYFGPGTRLTVT
# B13: TCR 59 (TCR, V domains shown)
# Valpha: GQQVMQIPQYQHVQEGEDFTTYCNSSTTLSNIQWYKQRPGGHPVFLIQLVKSGEVKKQKRLTFQFGEAKKNSSLHITATQTTDVGTYFCAPKREYGNKLVFGAGTILRVKS
# Vbeta: EPEVTQTPSHQVTQMGQEVILRCVPISNHLYFYWYRQILGQKVEFLVSFYNNEISEKSEIFDDQFSVERPDGSNFTLKIRSTKLEDSAMYFCAYSGRASYEQYFGPGTRLTVT
# B14: TCR 60 (TCR, V domains shown)
# Valpha: QKEVEQNSGPLSVPEGAIASLNCTYSDRGSQSFFWYRQYSGKSPELIMFIYSNGDKEDGRFTAQLNKASQYVSLLIRDSQPSDSATYLCAVNMLGSGGSNYKLTFGKGTLLTVNP
# Vbeta: EPEVTQTPSHQVTQMGQEVILRCVPISNHLYFYWYRQILGQKVEFLVSFYNNEISEKSEIFDDQFSVERPDGSNFTLKIRSTKLEDSAMYFCAISRTVSYEQYFGPGTRLTVT
# B15: TCR 61 (TCR, V domains shown)
# Valpha: QKEVEQNSGPLSVPEGAIASLNCTYSDRGSQSFFWYRQYSGKSPELIMFIYSNGDKEDGRFTAQLNKASQYVSLLIRDSQPSDSATYLCAVNIENNNARLMFGDGTQLVVKP
# Vbeta: EPEVTQTPSHQVTQMGQEVILRCVPISNHLYFYWYRQILGQKVEFLVSFYNNEISEKSEIFDDQFSVERPDGSNFTLKIRSTKLEDSAMYFCASTKRFSYEQYFGPGTRLTVT
# B16: TCR 63 (TCR, V domains shown)
# Valpha: SQELEQSPQSLIVQEGKNLTINCTSSKTLYGLYWYKQKYGEGLIFLMMLQKGGEEKSHEKITAKLDEKKQQSSLHITASQPSHAGIYLCGADIDDYKLSFGAGTTVTVRA
# Vbeta: GAGVSQSPRYKVAKRGQDVALRCDPISGHVSLFWYQQALGQGPEFLTYFQNEAQLDKSGLPSDRFFAERPEGSVSTLKIQRTQQEDSAVYLCASRPRQGYNDNEQFFGPGTRLTVL
# B17: TCR 64 (TCR, V domains shown)
# Valpha: AQKVTQAQTEISVVEKEDVTLDCVYETRDTTYYLFWYKQPPSGELVFLIRRNSFDEQNEISGRYSWNFQKSTSSFNFTITASQVVDSAVYFCALSGVDNYGQNFVFGPGTRLSVLP
# Vbeta: DTAVSQTPKYLVTQMGNDKSIKCEQNLGHDTMYWYKQDSKKFLKIMFSYNNKELIINETVPNRFSPKSPDKAHLNLHINSLELGDSAVYFCASSQGEAGANVLTFGAGSRLTVL
# Columns and labels:
# [1] = target: T3, HPV16 E7(11-19)-peptide-MHC tetramer complex (human papillomavirus 16 (HPV16); human); assay: flow cytometry, peptide-MHC tetramer staining of TCR-transduced primary human T cells;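 note: normal donor T cells activated with anti-CD3/anti-CD28, then lentivirally transduced with TCRs, with mock-transduced cells as control, co-stained for the transduction marker and CD8, tetramers presented by HLA-A02:01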
# T3 construct: also called E7(11-19)-specific tetramer; MHC/E7(11-19) peptide tetramer
# Method: (§1) CD8+ and CD4+ T cells were isolated from normal human donors and were stimulated with anti-CD3/anti-CD28 reagent, and then were transduced with a lentiviral preparation encoding various TCRs, or were subjected to a mock transduction control (cells treated under the same conditions used for lentiviral transduction but without addition of lentivirus). Following transduction, the cells were cultured in media containing human serum and cytokines.
# (§2) After transduction, the cells were assessed by flow cytometry for staining with an antibody that recognized the surrogate marker, an anti-CD8 antibody, and a HPV 16 E6(29-38)- or HPV16 E7(11-19)-peptide-MHC tetramer complex. […] The reference TCR contains a mouse constant region.
# (§3) Column 3 and 4 sets forth the percentage of CD8+ cells and CD8− cells (CD4+ cells) positive for E7(11-19)-specific tetramer staining in flow cytometry. Column 5 and 6 sets forth the percentage of CD8+ cells and CD8− cells (CD4+ cells) positive for E6(29-38)-specific tetramer staining in flow cytometry.
# [2] = target: T4, HPV 16 E6(29-38)-peptide-MHC tetramer complex (human papillomavirus 16 (HPV16); human); assay: as above
# T4 construct: also called E6(29-38)-specific tetramer
# Method: as §1, §2, §3
# [3] = target: T1, HPV 16 E7 peptide on HLA-A*02:01; assay: multimer staining
# [4] = target: T2, HPV 16 E6 peptide on HLA-A*02:01; assay: multimer staining
Binder,% of CD8+ cells positive for E7(11-19) tetramer staining [1] [%],% of CD8- (CD4+) cells positive for E7(11-19) tetramer staining [1] [%],% of CD8+ cells positive for E6(29-38) tetramer staining [2] [%],% of CD8- (CD4+) cells positive for E6(29-38) tetramer staining [2] [%],binding result [3],binding result [4]
B1,0.05,0.13,0.07,0.12,,
B2,9.91,0.1,0.14,0.11,,
B3,28,0.16,0.11,0.16,,
B4,21.5,0.13,0.15,0.07,,
B5,17.2,0.13,0.15,0.12,,
B6,38.8,0.07,0.2,0.04,,
B7,0.3,0.25,0.23,0.12,,
B8,0.13,0.06,0.17,0.11,,
B9,0.26,0.07,,,,
B10,95,86,0.23,0.19,,
B11,,,,,no recognition,no recognition
B12,,,,,recognises,no recognition
B13,,,,,recognises,no recognition
B14,,,,,recognises,no recognition
B15,,,,,recognises,no recognition
B16,,,,,,no recognition
B17,,,,,,no recognition
